Our source for the amyloid nucleation score values is the supplement of paper PMC12042874.

± gives the uncertainty stated by the source.

The nature of the series: amyloid nucleation score (Sup35N fusion, yeast selection) (log enrichment); library NNK2; higher = more nucleation; inactive = no reads after selection. The gist of the method:
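In psi-negative yeast, Sup35N fusions carrying peptides of 20 random codons were induced with 100 μM copper sulfate for 24 hours. The cells then grew 7 days at 30°C on medium lacking adenine and uracil, and plasmid inserts from input and output were Illumina-sequenced, excluding sequences with under 100 input reads. Nucleation score is the DiMSum log enrichment of output over input reads, centred on the mode score of non-aggregating sequences.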
On to CNYMPVPRPSMVMSFVSVTV, for which the amyloid nucleation score result was “inactive”.

Regarding NRDKF, the amyloid nucleation score is -1.07 ± 0.28.

Take SRLMCNNVTSLLVFVFIGHK: the amyloid nucleation score was -0.337 ± 0.74.

LLAFFMWSLRQRDSGTLLLD: the amyloid nucleation score was -0.63 ± 0.52.

AQDWVARIRWSVRQFYGARC yielded an amyloid nucleation score of 2.18 ± 0.14.

YLSDNHYWCWSYESF yielded an amyloid nucleation score of -0.725 ± 0.41.

For VKIYVFSFFMEL, the amyloid nucleation score was found to be 3.7 ± 0.12.

EYFMATE had an amyloid nucleation score of -0.248 ± 0.35.

For QVWPLCLVAGSSFGRRGVTG, the amyloid nucleation score was found to be 1.18 ± 0.29.

On to DLDVN, for which the amyloid nucleation score was -0.214 ± 0.56.

For the substance RDSVIYCCMMMKGTCAWLYL, the amyloid nucleation score result is “inactive”.

The substance PVSGGVNFNNRLLITWRAFW had an amyloid nucleation score of 0.885 ± 0.58.

Turning to ICNALCLYSVNLLPGTLMGI, the amyloid nucleation score worked out at 7.49 ± 0.027.

Substance RYVYRTVGWHQFLCGTVLFW came in with an amyloid nucleation score of 0.588 ± 0.16.

LLAVFTSCYCQECYVEPALV: the amyloid nucleation score was determined as 5.55 ± 0.07.

In turn, QLYYMKF had an amyloid nucleation score of 5.685 ± 0.042.

LFDGASMSRRIVMWDMGWWG gave an amyloid nucleation score of 4.54 ± 0.046.

For the substance SFIWEYNMYYTGLGRITWMP, the amyloid nucleation score came to 0.922 ± 0.34.

For the substance KAIYPYLI, the amyloid nucleation score result was “inactive”.

Substance SKPCWLFRNK came in with an amyloid nucleation score of -1.22 ± 1.1.

As for LIRGVII, the amyloid nucleation score was determined as 0.21 ± 0.54.

AWRVRTLQGFYGSDAWQSHD displayed an amyloid nucleation score of -0.237 ± 0.79.

For the substance TLYRPMTIMFMRVHHEVRWF, the amyloid nucleation score amounted to 6.195 ± 0.04.

The substance AVNSNDTRDGRCGVIAI yielded an amyloid nucleation score of 0.057 ± 0.31.

For the substance KKLKRRRVFVCEFTKEGIRG, the amyloid nucleation score is -0.067 ± 1.1.

As for FPLDIKGKWDVGNMEGKVVE, the amyloid nucleation score amounted to 0.486 ± 0.41.

For the substance SLLRLIFMLRRGDIHGYCRG, the amyloid nucleation score is 5.84 ± 0.084.

For LFFALSMCSIF, the amyloid nucleation score was 6.348 ± 0.032.

With NVQALMN, the amyloid nucleation score was found to be 0.012 ± 0.74.

Substance KFGNSCR yielded an amyloid nucleation score of -0.428 ± 0.42.

THIFVWNHFNLLRYTTKFLP registered an amyloid nucleation score of -0.304 ± 0.4.

In the case of MFYASFGVKL, the amyloid nucleation score stood at 0.655 ± 0.65.

RGLRA yielded an amyloid nucleation score of -0.213 ± 0.41.

With WRAIVPSGK, the amyloid nucleation score came out at 0.067 ± 0.63.

LKWDFRIYTTSWAAKKQGME: the amyloid nucleation score was 0.095 ± 0.37.

The substance CLAFLGLLKSFMITKGW came in with an amyloid nucleation score of -1.49 ± 0.78.

On to SPTGPMYRNLLSKKPYVR, for which the amyloid nucleation score is -0.909 ± 0.35.

With KCYSYCLLAL, the amyloid nucleation score is -0.202 ± 1.1.

On to KNDISHS, for which the amyloid nucleation score result was “inactive”.

As for DDSNCNNHGRVDDKVR, the amyloid nucleation score was determined as 4.9 ± 0.038.

As to TMNIKLWGAGTRRMFEMEPG, the amyloid nucleation score was 2.35 ± 0.22.

As for NGSESAYGNSLWLCLLEAAI, the amyloid nucleation score result is “inactive”.

Turning to NLGRAQTSQ, the amyloid nucleation score amounted to 0.192 ± 0.65.

FFIWLPYRSTTINRISPCWG: the amyloid nucleation score was -1.94 ± 0.54.

As for IVAGFNSKWLSTDFNRTENR, the amyloid nucleation score was -0.517 ± 0.78.

Regarding DLEIPFLKRKG, the amyloid nucleation score was -0.349 ± 0.6.

As to SMNVYVDGFCWLAHVLNVVW, the amyloid nucleation score amounted to 6.928 ± 0.035.

For KVGNGRDCIMLTVSCA, the amyloid nucleation score turned out to be 0.748 ± 0.23.

The substance RQGPALFSKINIATLKWLSM gave an amyloid nucleation score of 0.511 ± 0.62.

As for SVYNWYIIPANCEQDLCM, the amyloid nucleation score turned out to be 5.54 ± 0.095.

ECVLMTGTMWSTSSALW had an amyloid nucleation score of 0.877 ± 0.53.

Regarding GYLFGSALKSDIQYHTESMF, the amyloid nucleation score entry was “inactive”.

On to GYSAYESANWRLA, for which the amyloid nucleation score was 1.19 ± 0.44.

Take HYKTMFRFVCHFCENGGDGL: the amyloid nucleation score is 10.18 ± 0.06.

The substance LLALTFSTETQGRHTKCHSL returned an amyloid nucleation score of 4.07 ± 0.094.

As for CTLVFKGLGCKSVELGGTFC, the amyloid nucleation score is -0.564 ± 0.61.

LHDLDWYSGILIQFDSDMRW: the amyloid nucleation score came to 1.37 ± 0.15.

Consider CMGGQQPALGISSFTVVWLY, for which the amyloid nucleation score result is “inactive”.

TIFSNFGSMSLIGHGIEQVI returned an amyloid nucleation score of -1.39 ± 0.76.

The substance LKIFLLIVVGDDFMKSKYCP registered an amyloid nucleation score of -0.612 ± 0.64.

Take AFNARWTEIDVPWRASPAHV: the amyloid nucleation score was 0.657 ± 0.37.

On to KKACSLFTRGFGRYRNTYEV, for which the amyloid nucleation score entry is “inactive”.

SECMIRFVNYADGTFNIGHS: the amyloid nucleation score was -0.22 ± 0.37.

In turn, RILVTGI gave an amyloid nucleation score of -0.653 ± 0.79.

Consider KYSAQIL, for which the amyloid nucleation score is 0.172 ± 0.33.

In turn, KGKTLLYSAKHIVFNR gave an amyloid nucleation score of 0.482 ± 0.3.

Take WDDFTYGYRLRIYFLIFQRG: the amyloid nucleation score is -1.15 ± 1.1.

YGFVDSHRTH showed an amyloid nucleation score of 0.092 ± 0.61.

For the substance CTSLLI, the amyloid nucleation score was -0.545 ± 0.48.

YSWVGLCPLIGRLYTGFAN came in with an amyloid nucleation score of -1.71 ± 0.54.

QLYLWHCGFLTTDISGSNSS: the amyloid nucleation score was -0.713 ± 0.63.

On to WHDRDTITGSITIKKMH, for which the amyloid nucleation score is -0.702 ± 0.32.

For RISDDWVYLLCSCKGQGFLW, the amyloid nucleation score came out at 0.157 ± 1.

LNCENELDFKLLSQSNTTMC came in with an amyloid nucleation score of 0.199 ± 0.62.

Consider ITHCLTAFSVLWILVYVW, for which the amyloid nucleation score entry is “inactive”.

Regarding LHFTYCGSVMNVANDMVFVQ, the amyloid nucleation score turned out to be 0.106 ± 1.

As to MDQNG, the amyloid nucleation score was -0.427 ± 0.79.

SIHEMYFKAMDSVH: the amyloid nucleation score is -0.276 ± 0.62.

As for IFDYSV, the amyloid nucleation score was -0.874 ± 0.55.

In turn, NNHGLRTYIGPYISWLIYFS came in with an amyloid nucleation score of 2.53 ± 0.17.

HRHFCSLDGA yielded an amyloid nucleation score of 0.076 ± 0.29.

With RSKFLFYIYSGFEIRRKINT, the amyloid nucleation score result is “inactive”.

DVCMPIKKSITITTATVRVY yielded an amyloid nucleation score of -0.545 ± 0.63.

NMTHEA gave an amyloid nucleation score of -0.219 ± 0.63.

With DFYLFQG, the amyloid nucleation score came out at 0.228 ± 0.56.

For WYISARPYVFCYDMQRSLRL, the amyloid nucleation score is -0.505 ± 1.1.

GISVICLYGVQYSDVGGVNL: the amyloid nucleation score turned out to be 5.098 ± 0.043.

Regarding LKARIACADYIRSGIILLCS, the amyloid nucleation score came to 2.2 ± 0.08.

CGKCSVCG yielded an amyloid nucleation score of 0.502 ± 0.27.

RVLTKYMFMILFSSSFSYVR came in with an amyloid nucleation score of 0.154 ± 0.5.

PVLTYFKLQLMM gave an amyloid nucleation score of 2.23 ± 0.066.

For the substance SLACGNEKRFVMILSHI, the amyloid nucleation score is 0.641 ± 0.74.

Turning to FNFYKWYYIGLTAISFVYTV, the amyloid nucleation score was -1.51 ± 1.

For the substance GYLSDMINFVSYCGRLSWSV, the amyloid nucleation score entry is “inactive”.

MMGVCF: the amyloid nucleation score was -0.916 ± 1.1.

As to LSMVYYATFDGF, the amyloid nucleation score was -1.01 ± 1.1.

RLIKTHVVKLFQSRWWVIGD showed an amyloid nucleation score of 0.631 ± 0.51.

Substance VWYINSTNYLCPLISRVQVE came in with an amyloid nucleation score of -0.997 ± 0.36.

For HFMRLYSKVLILLAEKRTAP, the amyloid nucleation score came to 0.083 ± 0.76.

With IDLAFLLAVAVEPGWRTEV, the amyloid nucleation score is -0.024 ± 1.

The substance WLTKLDRTSLEGSEYFKKML showed an amyloid nucleation score of 0.307 ± 0.34.

LVWWLSNRV displayed an amyloid nucleation score of 2.41 ± 0.088.

For the substance TASSLCIQVGYVIFLY, the amyloid nucleation score was found to be 8.072 ± 0.032.

NITDDRMSSWIRFVILVSTV showed an amyloid nucleation score of -0.074 ± 0.56.

LYRLGFEAHRVYKQLKIIGG returned an amyloid nucleation score of 0.764 ± 0.4.

For the substance GSAMF, the amyloid nucleation score result was “inactive”.

As for LNVDP, the amyloid nucleation score entry was “inactive”.

Substance GVYKVGMVPWFIQFSDVGGR returned an amyloid nucleation score of 5.73 ± 0.068.

Substance SSIINMTDAVGWFLELKNGE came in with an amyloid nucleation score of 0.177 ± 0.37.

The substance NVKICFCSVMSSTCRYNRT yielded an amyloid nucleation score of 7.878 ± 0.064.

Take LYMCSSVLWVGLSLV: the amyloid nucleation score came out at 0.851 ± 0.56.

PCRVYHLCNYKLAWRKGGWL returned an amyloid nucleation score of 0.927 ± 0.2.

TRLDVQLGHGIGSV had an amyloid nucleation score of 0.092 ± 1.1.

For SRSSG, the amyloid nucleation score worked out at 5.17 ± 0.058.

For the substance PSGFRSLLFEVHHFSRWAYD, the amyloid nucleation score was 0.691 ± 0.15.

In the case of DGASIFSSAFIVGSGTLKQM, the amyloid nucleation score is -0.911 ± 0.78.

The substance WLRNWGYAFGPRQNYNCCRV showed an amyloid nucleation score of -0.569 ± 0.49.

FIYVSWRTWSEIVGMCFGVV came in with an amyloid nucleation score of -1 ± 0.45.

On to NIQWLLQVDEDFKF, for which the amyloid nucleation score is 1.58 ± 0.16.

The substance VKITGPRWLATIICYMFR displayed an amyloid nucleation score of 6.47 ± 0.075.

ILKSKVSGPIYVSE returned an amyloid nucleation score of 0.848 ± 0.23.

As to EMICVYSNFMKWVWSSFQTV, the amyloid nucleation score is -0.832 ± 0.33.

In turn, VHAPLLRRPNVLHTKLH returned an amyloid nucleation score of 0.112 ± 1.1.

Substance KPGMRNNYFLAFGFYCTCTR returned an amyloid nucleation score of 1.59 ± 0.21.

KGIDKPIEGPSSKHLRFNCY: the amyloid nucleation score worked out at 0.071 ± 0.65.

QLVGMD displayed an amyloid nucleation score of 0.868 ± 0.27.

Consider DDVKDNVYGSVEALKPRSG, for which the amyloid nucleation score is 0.467 ± 0.17.

With SCFVLLSSVDSLCMQDHF, the amyloid nucleation score worked out at 0.311 ± 0.43.

FGYVVVKRPSSMLLRASRDG showed an amyloid nucleation score of -0.619 ± 1.

Regarding VGMTTSWMVDPHGGRPGYHS, the amyloid nucleation score is 2.01 ± 0.16.

In turn, GDIRLLSRNVLGYIGALLDL showed an amyloid nucleation score of 0.179 ± 0.39.

For the substance LFVRAFEPSGDHLCYQYVCL, the amyloid nucleation score was -0.566 ± 0.38.

YMYLTCSLGSVCRFLSEHMW registered an amyloid nucleation score of -0.605 ± 0.36.

Regarding MINFDYYRYHCWCSNQHYTR, the amyloid nucleation score turned out to be 1.19 ± 0.47.

For LNPIFVWFHSC, the amyloid nucleation score turned out to be 7.23 ± 0.077.

As for CSFSADCVSRSGGRSFSP, the amyloid nucleation score was -0.834 ± 0.63.

WRHSVVMYNWKIGHCVGDYW came in with an amyloid nucleation score of 0.718 ± 0.18.

VWRSLMCFSWNPTMHRLISV displayed an amyloid nucleation score of 0.363 ± 0.53.

The substance MWKQWSSRTPRSVVYRGLMV displayed an amyloid nucleation score of 0.755 ± 0.21.

For the substance SSFGGGCSVCRMWGGFLLDG, the amyloid nucleation score was determined as 4.4 ± 0.059.

Regarding YLKMALVMIMYVITYRSTVG, the amyloid nucleation score is 1.65 ± 0.31.
